From the supplement of paper PMC12042874
± gives the uncertainty stated by the source.

assay: amyloid nucleation score (Sup35N fusion, yeast selection) (log enrichment); library NNK2; higher = more nucleation; inactive = no reads after selection
How it was run: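 For the nucleation score, DiMSum gave the log enrichment of output over input reads, centred on the mode score of non-aggregating sequences. Psi-negative yeast expressing Sup35N fused to peptides of 20 random codons were induced with 100 μM copper sulfate for 24 hours and grown 7 days at 30°C on medium lacking adenine and uracil. Input and output plasmid inserts were Illumina-sequenced, and sequences with under 100 input reads were excluded.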

Row | Substance | amyloid nucleation score
1 | TLGLLDHWSLREWDTTGWVE | 0.691 ± 0.37
2 | TLHFKFMVIRRN | -0.254 ± 0.63
3 | TLHKLFQMNLGRR | -0.738 ± 0.44
4 | TLHWSMR | 8.355 ± 0.034
5 | TLIGKFRTNNFRSMVDAESK | -0.59 ± 0.63
6 | TLLDNRRGCVMSWRGFLWMR | -0.363 ± 0.65
7 | TLLKHTSSTSIVYRRHALEI | 1.35 ± 0.29
8 | TLLLDQCDSRVDFWSNVP | -0.088 ± 1.1
9 | TLLSFRTVDNKIYKVLWVKT | 0.418 ± 0.48
10 | TLLWYCTIADRNSNVRMVAS | 0.966 ± 0.24
11 | TLNVRIAS | -0.124 ± 0.62
12 | TLPWFGSFLRGVFKVPLIRG | 2.27 ± 0.1
13 | TLQKELSHVQETRYTW | -0.288 ± 1
14 | TLSHPWADLLVSETHMVYR | -0.381 ± 1.1
15 | TLSLSYALLSCVSVIKCPLV | -0.451 ± 0.79
16 | TLSSFL | -1.55 ± 0.41
17 | TLVCSKAFKYVGV | 0.131 ± 0.46
18 | TLVCWCLIFNVDKPFCVLML | inactive
19 | TLWEGVFKRSWLGVSGSKVE | 0.401 ± 0.23
20 | TLWVWVCCFQDWCSVSRGGR | 8.892 ± 0.03
21 | TMCMPAHMPYQHVSYLDILT | -0.161 ± 1.1
22 | TMFEGFRCLRR | 0.923 ± 0.81

Row | Substance | amyloid nucleation score
23 | TMGTSSLVSAQLICRGTLAK | 0.172 ± 0.62
24 | TMKHLFRDGRSIRLLTCWVS | -0.931 ± 0.42
25 | TMLCYYINFRLIVYRSWYKQ | -0.788 ± 0.34
26 | TMLEFNCSYLNI | 2.98 ± 0.083
27 | TMLFTALDASHWG | 6.696 ± 0.05
28 | TMMSQVGMDR | 0.377 ± 0.34
29 | TMPFWKDFQT | 0.183 ± 1
30 | TMRYMVQMLRFEQSGLGQWV | 4.19 ± 0.076
31 | TMSVDCWLCNLRMEMFLELY | -1.54 ± 0.75
32 | TMWYIGKITRPSLRAGSGFT | -1.16 ± 0.48
33 | TNGYSVRLYKGSCVILIGL | 5.12 ± 0.092
34 | TNITGVIRVL | -0.211 ± 0.31
35 | TNLRAPEHHSHYCSRLRLD | -0.267 ± 0.35
36 | TNLYNDIGDRMFSSNWSTPV | -0.02 ± 1.1
37 | TNYKRCCV | -0.12 ± 0.32
38 | TPIVGMLY | -0.477 ± 0.55
39 | TPLEYF | -0.19 ± 0.3
40 | TQCRFRTSRVDICKIVKPGS | 0.177 ± 0.65
41 | TQMTMEGAYPCCVVVP | 0.903 ± 0.74
42 | TQNTTYNAYMNLKE | -1.24 ± 1.1
43 | TRCGE | -0.134 ± 0.25
44 | TRGKRVPPDVLSSPKRIANV | 1.12 ± 0.46

Row | Substance | amyloid nucleation score
45 | TRISGLGPDRDFSFRAASAK | -0.446 ± 0.76
46 | TRKILEMVFLLTAVNYNGVP | -1.12 ± 0.26
47 | TRMVCSFRCQESVPEP | 0.775 ± 0.8
48 | TRPLFTFRAMVDTRIHVFPM | 0.201 ± 0.8
49 | TRQLIYHWDKFSPHPAQFLT | 0.652 ± 0.64
50 | TRRARSDSDLMCRDRVSVDN | -0.249 ± 0.35
51 | TRSRKWHRGS | 1.14 ± 0.32
52 | TRYRLDACRGHAWYSVFFLM | -0.286 ± 0.49
53 | TRYTRGSALCTLDGKIYMMK | 1.29 ± 0.4
54 | TSDPCFFCNST | -0.381 ± 0.79
55 | TSECPVWNSFYVQNGSDLSI | 1.34 ± 0.14
56 | TSFSG | 0.56 ± 0.38
57 | TSGFRKHNVQRRLECTPGDW | 1.14 ± 0.31
58 | TSHSCGYLWCSLV | 0.211 ± 0.61
59 | TSNSTQLEDLV | 0.309 ± 0.45
60 | TSQTCLEVSRSCCVGMRKSK | 0.192 ± 1
61 | TSRLHNFATRIIVCYRLLMQ | -0.525 ± 1.1
62 | TSSFEARRRGWLTDEGVLFY | 0.784 ± 0.54
63 | TSSTLGLYSHDMPTATHLME | -0.176 ± 0.41
64 | TSSVPGLRSWVWVKQDSDRW | 1 ± 0.19
65 | TSTTYRLYKLGQFLARPANQ | -0.637 ± 1.1
66 | TTDLYEMLWTFWSINRNSKS | -0.071 ± 0.61

Row | Substance | amyloid nucleation score
67 | TTGRTYIRLIYIMCVSMNVS | inactive
68 | TTRSIMQCDLGTNPFDNTCS | 0.203 ± 0.41
69 | TTSQFGLGGICPDNSTGLLA | -1.31 ± 1
70 | TVAVGVIV | inactive
71 | TVIAEPIRDEQCTIYHRCGV | 0.554 ± 0.38
72 | TVKCYNL | 0.268 ± 0.46
73 | TVLLSLSYADCSMLWLVRTL | -0.304 ± 1.1
74 | TVSPPLVVFAFRISLRSLRP | 1.12 ± 0.4
75 | TVTRLSYGMFHQRNRVC | -0.267 ± 0.45
76 | TVVVYIRYRTPMRMVTPPSQ | 0.986 ± 0.21
77 | TVYNDNFVCRILNLDITILF | 6.957 ± 0.053
78 | TWQIFFGIFGFSFY | 4.18 ± 0.062
79 | TWQVMRRYLENPDGSL | -1.03 ± 0.62
80 | TWRNYS | -0.279 ± 0.35
81 | TWRVP | 0.884 ± 0.55
82 | TWVLSWSIPNCARGFLSWWI | 0.672 ± 0.18
83 | TWVVRVGFMLAYLKQR | 2.63 ± 0.093
84 | TWYPIAFKTGCEMLTERSM | 6.435 ± 0.035
85 | TYEMTRMSGIKSSLLPREFW | 1.52 ± 0.17
86 | TYGVLVNIGGWIDTFGWKLK | 6.662 ± 0.049
87 | TYHCN | 0.765 ± 0.43
